In patent publication US20260069656A1, “Nutritive Polypeptides and Formulations Thereof, and Methods of Production and Use Thereof” (Axcella Health Inc., priority 2013, published 2026):

Tests used:
[1] = Intact half-life during simulated gastric fluid (SGF) digestion; details: SGF pH 1.5, pepsin:polypeptide 1:20 w/w, 37° C.; produced in E. coli unless otherwise noted
[2] = Thermostability, ProteoStat Thermal Shift Stability Kit, temperature of aggregation; assay type: physicochemical; details: pH 7.1; heated from 25° C. to 95° C.
Description: Thermostability. The thermostability of proteins in a buffer cocktail of Citric Acid and Dibasic Sodium Phosphate over a pH range of 2.8 to 7.1 (preparation described above in Table E31B) was determined using the ProteoStat® Thermal Shift Stability Kit (Enzo Life Sciences) according to the manufacturer's standard protocol. Briefly, protein solutions (˜10 mg/ml) containing 1× ProteoStat TS Detection Reagent were heated from 25° C. to 95° C. at a rate of 0.5° C. per 30 sec using a real-time PCR (rtPCR) thermocycler (BioRad) equipped with a plate reader (SynergyMx, Biotek) while monitoring the fluorescence with a Texas Red filter.

insulin = assay: Plasma insulin after acute oral dosing in rats, Rat Insulin ELISA; assay type: in vivo; details: Rat Insulin ELISA kit; oral gavage
Description: Animals were treated and acutely dosed with various test articles as part of pharmacokinetic rodent experiments according to methods described herein. Unless otherwise stated all dosing was at 2.85 g/kg body weight. All treatment groups except for SEQID-00240 which had n=5 rats, and SEQID-00587 which had n=3, contained n=4 rats.
An Ultra-Sensitive Rat Insulin ELISA Kit was obtained from Crystal Chem, Inc. (Catalog number 90060, Downers Grove, IL). Plates were washed using a BioTek ELx50 microplate strip washer (BioTek, Winooski, VT). Absorbance was read on a Synergy Mx monochromator-based microplate reader (BioTek, Winooski, VT). Data was analyzed using Microsoft Excel version 14.0.7128.5000 (Microsoft Corporation, Redmond, WA) and GraphPad Prism version 6.03 for Windows (GraphPad Software, La Jolla, CA).
The ELISA kit was pre-warmed to room temperature for 30 minutes prior to beginning the assay set up. The standard curve dilutions were prepared in accordance with the manufacturer's instructions for running the assay in Wide Range format. […]
Anti-Insulin Enzyme Conjugate Working Solution was prepared by combining 2 volumes Anti-Insulin Enzyme Conjugate Stock with 1 volume Enzyme Conjugate Diluent, and mixing by pipetting up and down and gently vortexing. […] The absorbance was read on the Synergy Mx plate reader at 450 nm and 630 nm. […]

[3] = Rat pharmacokinetic studies, plasma amino acids by HPLC; details: oral administration to rats
Description: Rat pharmacokinetic studies. Male Sprague Dawley rats with indwelling jugular vein cannula (JVC) were purchased from Harlan Laboratories and acclimated to the Test Facility (Agilux Laboratories) for at least two days prior to study initiation. Prior to dose administration animals were fasted overnight (11-13 h) and remained fasted until completion of the study. Test articles were orally administered via a bulb-tipped 18 gauge stainless steel gavage needle attached to a syringe. The weight of all dose syringes were recorded prior to and following dosing to more accurately determine the amount of solution dosed. Serial blood samples (˜300 μL) were collected from the JVC at time 0 (pre-dose) and 0.25, 0.5, 1, 2, and 4 h post-dose. Blood samples were collected into tubes containing the anti-coagulant K2EDTA, a general protease inhibitor cocktail (Sigma P8340, diluted 1:100 in whole blood), and a DPP IV inhibitor (Millipore DPP4, diluted 1:100 in whole blood). Immediately following blood collection tubes were vortexed and stored on wet ice until processing to plasma by centrifugation (3,500 rpm at 5° C.) within 1 h of collection. Plasma samples were then transferred into new tubes and stored at −80° C.
The concentration of Glu, Ser, His, Gly, Thr, Arg, Ala, Tyr, Val, Met, Phe, Ile, Leu, and Lys in the plasma samples was determined by HPLC amino acid analysis, as described herein. Prior to HPLC amino acid analysis, insoluble particles were removed from plasma samples by centrifugation (1100×g at 4° C.) for 10 min. A 25 μL sample of the soluble fraction was then transferred to a 96-well plate, for some samples an internal standard (Norvaline, Agilent) was added to each plasma sample at final concentration of 0.5 mM.

For “SEQID-00240: nutritive polypeptide naturally produced in Cow, recombinantly expressed in E. coli (DLEGSLEQEKKLRMDLERAKRKLEGDLKLAQESTMDIENDKQQLDEKLKK; listed as Bos taurus)”, the “SGF Half-life (t½)” value [1] was 42 s, the “Tagg (pH 7.1)” value [2] was greater than 95 and the “plasma insulin concentration vs time 0” value (insulin) was “statistically significant increase in plasma insulin at 15 and 30 minutes post gavage compared to time 0”. The “plasma Phe concentration” value [3] was “causing no flux in plasma Phe concentration” and the “change in AUC0-4 h for plasma Lys” value ([3]; doses of Table E33A) was “increased the change in AUC0-4 h for plasma Lys”.
